Test results taken from patent US20200138969A1 (published 2020).

B1: SC16.34 (antibody, V domains shown)
VH: QIQLVQSGPELKRPGETVKISCKASGYTFTNYGMNWVKQAPGKGLKWMGWINTYTGDPTYADDFKGRFAFSLETSASTAYLQINNLKNEDTATYFCARIGGNSPSDYWGQGTSLTVSS
VL: SIVMTQTPKFLLVSAGDRVTITCKASQSVSNDVAWYQQKPGQSPKLLIYYASNRYSGVPDRFTGSGYGTDFTFTISTVQAEDLAVYFCQQDYSSPWTFGGGTKLEIK
B2: SC16.15 (antibody, V domains shown)
VH: QVQLQQSGAELAKPGASVKMSCKASGYTFTRYWIHWIKQRPGQGLEWIGYINPTTVYTEFNQNFKDKATLTADKSSTTASMQLSSLTSEDSAVYYCARGGSNFFDYWGQGTTLTVSS
VL: DIQMTQSPASLAASVGETVAITCRASENIYYNLAWYQQKQGKSPQLLIYTANSLEDGVPSRFSGSGSGTQYSLKINSMQPEDSATYFCKQAYDVPPTFGGGTKLEIK

Molecular target: T1, human DLL3 (delta-like ligand 3), on the cell surface (human, UniProt Q9NYJ7 27-618)
T1 sequence: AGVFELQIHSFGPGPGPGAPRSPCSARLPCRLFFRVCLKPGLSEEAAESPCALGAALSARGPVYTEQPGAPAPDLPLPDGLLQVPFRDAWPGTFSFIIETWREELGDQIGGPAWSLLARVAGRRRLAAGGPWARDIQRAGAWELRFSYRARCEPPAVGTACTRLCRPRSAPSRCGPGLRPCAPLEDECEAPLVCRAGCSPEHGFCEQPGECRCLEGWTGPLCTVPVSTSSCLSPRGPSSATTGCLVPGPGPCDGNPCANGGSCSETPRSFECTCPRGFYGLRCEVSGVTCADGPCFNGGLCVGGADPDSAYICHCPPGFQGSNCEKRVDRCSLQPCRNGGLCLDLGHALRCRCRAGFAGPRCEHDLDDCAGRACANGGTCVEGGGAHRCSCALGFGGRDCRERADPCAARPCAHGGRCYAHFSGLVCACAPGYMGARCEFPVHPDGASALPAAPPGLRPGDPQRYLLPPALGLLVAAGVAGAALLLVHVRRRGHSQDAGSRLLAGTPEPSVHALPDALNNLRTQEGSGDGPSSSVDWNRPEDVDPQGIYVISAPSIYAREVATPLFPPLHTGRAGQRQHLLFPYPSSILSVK
Assay: cell-based or functional assay

Binder | EC50 of killing of OV26 (ovarian NET NTX tumor) cells with anti-mouse IgG Fab-saporin
B1 | 5.7 µM
B2 | 0.14 µM
